In patent US20120263651 one finds binding signal (fold increase with TNF) data, which are given here for two substances.

This data set addresses endogenous RelA in A549 cells (Homo sapiens) (UniProt Q04206). As to conditions: two-step ChIP.

Where two headings read alike, the source gives them in different places.

Chain of endogenous RelA in A549 cells (Homo sapiens) (Q04206 whole entry): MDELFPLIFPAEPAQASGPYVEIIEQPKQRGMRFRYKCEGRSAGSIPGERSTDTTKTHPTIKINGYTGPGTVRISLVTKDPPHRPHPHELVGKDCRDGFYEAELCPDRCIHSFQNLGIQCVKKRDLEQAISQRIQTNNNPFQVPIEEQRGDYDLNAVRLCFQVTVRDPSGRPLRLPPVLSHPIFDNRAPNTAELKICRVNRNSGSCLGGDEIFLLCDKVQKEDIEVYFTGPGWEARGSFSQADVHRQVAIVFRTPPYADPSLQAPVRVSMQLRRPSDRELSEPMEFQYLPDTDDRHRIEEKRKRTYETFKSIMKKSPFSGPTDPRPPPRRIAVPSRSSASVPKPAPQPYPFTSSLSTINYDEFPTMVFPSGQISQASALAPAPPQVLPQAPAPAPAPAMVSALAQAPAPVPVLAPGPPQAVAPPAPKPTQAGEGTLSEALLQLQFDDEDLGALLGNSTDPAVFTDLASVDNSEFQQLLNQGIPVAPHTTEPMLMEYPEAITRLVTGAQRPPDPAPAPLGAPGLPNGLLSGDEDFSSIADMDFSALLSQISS

With Gro-beta promoter chromatin, the binding signal (fold increase with TNF) (reduced by transfected P028F4 (4 uM)) came to 3.5.

The substance TNFAIP3/A20 promoter chromatin registered a binding signal (fold increase with TNF) (reduced to less than 2-fold by P028F4) of 3.5.
